Results: PMC6838142, “Nano-Antagonist Alleviates Inflammation and Allows for MRI of Atherosclerosis” (Nanotheranostics, 2019)
Entries after “also recorded” stand apart in the source; their conditions may differ.

Tests used:
[1] = tested on: BMDMs; assay: GSH/GSSG assay in LPS-primed BMDMs; type: cell-based, mouse; details: LPS-primed (100 ng/mL) BMDMs, 5 µM CCTV vs vehicle, 8 experiments
[2] = Dynamic light scattering of nanoparticles; type: physicochemical; details: Malvern Zetasizer Nano S; for Size (Mean Z average): hydrodynamic diameter
Method: Lipid-peptide conjugates were synthesized from either DSPE-PEG-CO2H or DSPE-PEG-MAL using peptides derived using SVM prediction platform and listed in Supplementary Table S2. The peptides were conjugated to either the N-terminus or via sulfhydryl groups as depicted in Figure 1E. Lipid films from both PEGylated derivatives were prepared by evaporation under nitrogen gas, from 1 µM of lipid solution in chloroform. Tetrapeptides were custom-synthesized by Genscript. 5 µmol of peptide solutions in water:dimethylformamide (1:1) were prepared via a brief bath sonication. […] PEGylated lipids prepared above were sonicated (10 min, 300 W, room temperature) in 5 mL of MES (pH 6, 100 mM) for DSPE-PEG-CO2H and in 5 mL of HEPES buffered saline [HBS] (pH 7.2, 100 mM, 154 mM NaCl) for DSPE-PEG-MAL. Next, DSPE-PEG-CO2H was activated by the addition of 2 mg of EDC (20 mg/mL in water) and 5 mg of sulfo-NHS (10 mg/mL in water). This was sonicated at 15 W for 10 min in a temperature controlled bath at 30 °C. Then, peptide solutions/suspensions were added to the resulting DSPE-PEG-NHS or previously prepared DSPE-PEG-MAL and stirred at room temperature for 4 h. The reaction with DSPE-PEG-NHS was quenched by the addition of 100 µL of 0.5 M of NH2OH in HBS, plus 1 mM EDTA. The reaction with DSPE-PEG-MAL was quenched by the addition of 7 µL of 2-mercaptoethanol. The solution was freezed at -80 °C and lyophilized. Next, lipid-peptide conjugates were extracted with chloroform (3 x 2 mL) and centrifuged at 4000 g x 5 min. Combined extract supernatants were evaporated under N2 gas and sonicated (10 min, 100 W) in 0.5-1 mL of water at room temperature. This raw product was purified by size […] chromatography as follows. Millipore Vantage column (10 x 500 mm) was packed with Sepharose 4B in deionized water under flow rate of 0.5 mL/min. Next, 0.5 mL of raw nanoparticle preparation was injected into the column and 0.5 mL fractions were collected at 0.5 mL/min simultaneously with UV detection at 190, 214, 250 and 280 nm using the Bio Rad DuoFlow system equipped with BioLogic QuadTec UV/Vis detector. See Supplementary Figure S2 for representative chromatograms. Combined fractions 15-31 were frozen and lyophilized. Particles used in signalling In vitro work were prepared by reconstitution of lyophilizates in PBS or HBS buffer via sonication. Particles used in reporter, flow cytometry and microscopy experiments were prepared by addition of 1% (by weight) of Rhodamine-PE in ethanol followed by reconstitution as described above. Particles used in magnetic resonance imaging (MRI) and time-resolved fluorescence (TRF) assays were prepared by addition of 10-20% (by weight) of gadolinium or europium chelate-lipids followed by reconstitution as above. Gadolinium-DTPA (18:0 PE-DTPA) was obtained from Avanti Polar Lipids and europium cryptate-NHS was obtained from Aat Bioquest (Supplementary Table S1). Europium cryptate-NHS was further conjugated to phosphatidylethanolamine (PE) to obtain Eu-cryptate-PE according to published and well established protocols. To confirm peptide conjugation, the powder was reconstituted in 1 mL of chloroform and analyzed with TLC (eluent chloroform:methanol:water 65:25:4) detecting with Molybdenum blue (Supplementary Figure S3A) or Dragendorff reagent (Supplementary Figure S3B). Nanoparticles were characterized by dynamic light scattering using Malvern Zetasizer Nano S (Supplementary Table S3). The presence of the peptide bond (N-H) and aliphatic C-H and C-C stretches (lipids) was confirmed by infrared (IR) spectroscopy. Nanoparticles were isolated as a homogeneous population (peak) in gel-filtration (see above) and were used without additional purification.

[3] = tested on: caspase 3 and heme oxygenase (HO-1) proteins in RAW cells; assay: Immunoblot of active caspase 3 and HO-1; type: cell-based, mouse; details: 1 µM nanoparticles, 3 h
Method: Immunoblotting was performed as previously described with the following modifications. Briefly, cell lysates were obtained in SDS lysis buffer consisting of 2% SDS, 50 mM Tris-HCl (pH 6.8), 100 mM DTT, 5% Ficoll 400, 0.0001% bromophenol blue and a cocktail of protease inhibitors. Lysates were sonicated on ice before heating at 97 °C for 7 min to completely denature the protein. Protein concentration was determined using IR spectroscopy (which is insensitive to high SDS and DTT concentrations) with a Millipore DirectDetect spectrometer. Lysates were equally loaded at 10-15 µg per lane on BioRad TGX Criterion gels (4-15%) and resolved at 300 V in Tris-Glycine running buffer. Proteins were transferred on nitrocellulose membranes using the BioRad TransBlot turbo according to the manufacturer's instructions. Membranes were blocked in fish serum (Aqua Block) or 5% nonfat dry milk in TBS-T (0.05% Tween 20) and probed overnight at 4 °C with primary antibodies as indicated in Supplementary Table S1. The membranes were washed in TBS-T and incubated with secondary antibodies for 1 h at room temperature. After washing, semi-quantitative visualization of the proteins of interest was enabled using an enhanced chemiluminescence reagent as previously described and the Azure C400 western blot imaging system.
N-acetylcysteine (NAC) served as an antioxidant control. β-Actin was used as a loading control. B) Gene expression analysis in RAW cells treated with 1 µM of vehicle, CCTV and VTCC (peptide nanoparticle control) for 24 h. mRNA expression of mannose receptor (Mrc1), nitric oxide synthase 2 (Nos2), tumor necrosis factor (Tnf), interleukin-1beta (Il1b), and interleukin-6 (Il6) were analyzed. C) Cytokines in cell culture supernatants were analyzed as indicated. D) Schematic representation of transcriptional activation of primary and secondary inflammatory response to lipopolysaccharide (LPS). E) Immunoblot analysis of dose-dependent suppression of IL-1β and HO-1 production by CCTV with and without stimulation by 100 ng/mL LPS for 16 h in bone marrow derived macrophages (BMDMs). GAPDH served as a loading control. F) Chemotaxis assays in bone marrow derived monocytes treated with 5 µM vehicle, CCTV, VTCC or left untreated. Chemotaxis was stimulated by introducing a gradient of recombinant mouse CCL2. Forty (out of 150-300) cell migration tracks are presented for simplicity. Metrics of chemotactic behaviour i.e. velocity, distance travelled, and chemotactic index were quantified as presented in bar graphs. G) BMDMs were pre-treated for 6 h with 5 µM CCTV or VTCC followed by 500 nM CCL2 for the indicated times. […] P values are calculated by t-test and error bars are standard errors of three independent experiments.

[4] = tested on: RAW cells
[5] = tested on: bone marrow derived monocytes, CCL2-induced migration; assay: CCL2-induced chemotaxis assay; type: cell-based, mouse; details: pre-treated BMDMs; 100 nM recombinant mouse CCL2, 12 h; nanoparticles
Method: Chemotaxis assays were performed using IBIDI µ-Slides as per the manufacturer's instructions and the recently published guide detailing the protocol. […] Cells were allowed to attach for 3 h at 37 °C, washed with 0.2 mL warm cell culture medium using a pipette tip inserted into µ-channel port, following which 100 nM recombinant mouse CCL2 protein was added as a chemoattractant (or omitted in control slides) to the one of side reservoirs. Cell movement was recorded for a duration of 12 h via phase video-microscopy in a stage-top humidified incubator at 37 °C and 5% CO2 atmosphere. Analysis was performed using the ImageJ IBIDI tracking tool, available free of charge at https://ibidi.com.

[6] = tested on: F4/80-positive plaque macrophages; assay: Immunohistochemistry / plaque macrophage co-staining; type: in vivo, mouse; details: rhodamine signal, 24 h after injection
Method: Twenty-four hours after nanoparticle injection (see above), mice were euthanized and abdominal aortas were isolated and embedded in Optimal Cutting Temperature compound. After cryotome-sectioning, resulting in 20-30 slides per mouse, 15 slides were sent to Ohio State laser capture microdissection core lab for capture and analysis. The rest of the slides were processed as follows: after fixation in methanol:acetone 50:50 at -20 °C, slides were hydrated in PBS, blocked for 30 min in fish serum (Aqua Block) and stained for 1 h with primary antibodies against F4/80 followed washing and staining with HRP-conjugated secondary antibody for 30 min. DAB peroxidase kit was then used as per manufacturer's instructions followed by mounting. DAB and antibody staining (but not wash steps) was omitted in slides designated for nanoparticle fluorescence visualization. Nanoparticles fluorescence was visualized with Zeiss 510 LSM-meta confocal microscope and 20x objective. DAB F4/80 staining was visualized with Nikon FN1 microscope and same power objective.

[7] = tested on: interleukin-1 beta (IL-1β); details: CANTOS clinical trial, cited from earlier work
Description: Inflammation is a process of immune system activation that is often accompanied by increased migration of immune cells to a site of injury or disease. Inflammation-driven immune cell migration is orchestrated via chemokine receptor-ligand pairs that are ubiquitously expressed in innate immune cells and are hyperactivated in many pathologies.

Compound | Mean Polydispersity Index (PDI) [2] | Size (Mean Z average) [2] [nm] | further results
CC(=O)N[C@@H](CS)C(=O)O [NAC, N-Acetyl-L-cysteine, reference compound] | – | – | GSH levels [1]: In contrast to classic antioxidant NAC, CCTV was unable to restore GSH levels; GSSG levels [1]: In contrast to classic antioxidant NAC, CCTV was unable to restore GSH levels or reduce GSSG
ALLC [B4, ALLC peptide-lipid conjugate nanoparticle, N-terminus conjugation] | 0.151 | 86 | –
ALLC [C4, ALLC peptide-lipid conjugate nanoparticle, SH conjugation] | 0.002 | 79 | –
CCTV [N-term CCTV] | – | – | active (cleaved at Asp175, p19/17) caspase 3 [3]: upregulation; also recorded: significant apoptosis-associated caspase-3 activity; heme oxygenase-1 (HO-1) levels [3]: upregulation; also recorded: increased; apoptosis and cell death [4]: significant apoptosis and cell death
DKQT [B1, DKQT peptide-lipid conjugate nanoparticle, N-terminus conjugation] | 0.176 | 204 | –
HLDK [B3, HLDK peptide-lipid conjugate nanoparticle, N-terminus conjugation] | 0.257 | 61 | –
IVAK [B2, IVAK peptide-lipid conjugate nanoparticle, N-terminus conjugation] | 0.058 | 53 | –
KISV [A4, KISV peptide-lipid conjugate nanoparticle, N-terminus conjugation] | 0.09 | 114 | –
KTIV [A6, KTIV peptide-lipid conjugate nanoparticle, N-terminus conjugation] | 0.054 | 142 | –
KVSA [A2, KVSA peptide-lipid conjugate nanoparticle, N-terminus conjugation] | 0.124 | 110 | –
LLIA [A3, LLIA peptide-lipid conjugate nanoparticle, N-terminus conjugation] | 0.162 | 134 | –
LLLI [B6, LLLI peptide-lipid conjugate nanoparticle, N-terminus conjugation] | 0.152 | 223 | –
MDHL [C2, MDHL peptide-lipid conjugate nanoparticle, N-terminus conjugation] | 0.111 | 134 | –
MKVS [C1, MKVS peptide-lipid conjugate nanoparticle, N-terminus conjugation] | 0.159 | 189 | –
QDSM [B5, QDSM peptide-lipid conjugate nanoparticle, N-terminus conjugation] | 0.169 | 198 | –
RLAS [A1, RLAS peptide-lipid conjugate nanoparticle, N-terminus conjugation] | 0.198 | 93 | –
VTCC | – | – | Mean Polydispersity Index (PDI) ([2]; listed as C3): 0.148; Size (Mean Z average) ([2]; listed as C3): 167 nm; CCL2-induced monocyte migration [5]: not seen with VTCC; co-staining with F4/80 in plaque [6]: not VTCC rhodamine signal
VTCC [A5] | 0.141 | 76 | active (cleaved at Asp175, p19/17) caspase 3 ([3]; listed as N-term VTCC): upregulation; heme oxygenase-1 (HO-1) levels ([3]; listed as N-term VTCC): upregulation; apoptosis and cell death [4]: significant apoptosis and cell death
canakinumab: interleukin-1 beta (IL-1β) neutralizing monoclonal antibody | – | – | cardiovascular events ([7]; cardiovascular disease): a reduction in cardiovascular events; risk of death from infection and sepsis [7]: significantly increased risk of death from infection and sepsis
